Read-outs that look alike come from different tables or passages of the source.
B1: anti-CNPase nanobody NbCNP 10E (VHH)
VHH: EVQLEESGGGLVQPGGSLRLSCAVSGITLDDFGIGWFRQAPGKEREGVACISPGYEHIYYADSAKGRFTISRDNAKNTVYLQMNNLKPWDTGVYYCAADNDLPDRLWGGSDWSDPSPYDYWGQGTQVTVSS
notes: Purified as described for anti-Arc Nbs (Markusson et al., 2022); source: E. coli, pTH27 vector, purified (SEC, TEV, reverse NiNTA, SEC); not shown: His6, N-terminal, cleaved
B2: MaBP-10E (His6-maltose-binding protein fusion of NbCNP 10E) (VHH)
VHH: EVQLEESGGGLVQPGGSLRLSCAVSGITLDDFGIGWFRQAPGKEREGVACISPGYEHIYYADSAKGRFTISRDNAKNTVYLQMNNLKPWDTGVYYCAADNDLPDRLWGGSDWSDPSPYDYWGQGTQVTVSS
notes: as the VHH of m9; source: E. coli Shuffle T7, pHMGWA vector, purified; not shown: His6, N-terminal, kept
B3: iNbCNP 10E fused to mRuby3 (VHH)
VHH: EVQLEESGGGLVQPGGSLRLSCAVSGITLDDFGIGWFRQAPGKEREGVACISPGYEHIYYADSAKGRFTISRDNAKNTVYLQMNNLKPWDTGVYYCAADNDLPDRLWGGSDWSDPSPYDYWGQGTQVTVSS
notes: as the VHH of m9; also called NbCNP 10E-mRuby3; source: COS-7, co-transfected, in cells; not shown: mRuby3, C-terminal, kept
B4: anti-CNPase nanobody NbCNP 8C (VHH)
VHH: EVQLEESGGGLVQAGGSLTLSCAASGFTFDDYAMGWYRQAPGKERVGVSCISRTDGYTYYLDSVKGRFTISTDHAKHTVYLQMNNLKPDDTGLYYCAADADPEYGSRCPDPYYGMDYWGKGILVTVSS
notes: Extra disulphide between CDR2 and CDR3; source: E. coli Shuffle T7, His6-MaBP fusion (pHMGWA), purified (NiNTA, TEV, reverse NiNTA, SEC); not shown: His6, N-terminal, cleaved
B5: anti-CNPase nanobody NbCNP 5E (VHH)
VHH: EVQLLESGGGSVQAGGSLRLSCAASGFTVGDYAIGWFRQAPGQQREAVACISTDDGDTYYADSVKGRFTISSDNAKKTAYLEMNNLKPEDTAVYHCAVDGWDSSCTFYSPSYYRDFSDHGAWGQGTQVTVSS
notes: Extra disulphide between CDR2 and CDR3; also called Nb5E; source: E. coli Shuffle T7, His6-MaBP fusion (pHMGWA), purified (NiNTA, TEV, reverse NiNTA, SEC); not shown: His6, N-terminal, cleaved
B6: iNbCNP 5E fused to mRuby3 (VHH)
VHH: EVQLLESGGGSVQAGGSLRLSCAASGFTVGDYAIGWFRQAPGQQREAVACISTDDGDTYYADSVKGRFTISSDNAKKTAYLEMNNLKPEDTAVYHCAVDGWDSSCTFYSPSYYRDFSDHGAWGQGTQVTVSS
notes: as the VHH of m5; also called NbCNP 5E-mRuby3; source: COS-7, co-transfected, in cells; not shown: mRuby3, C-terminal, kept
B7: anti-CNPase nanobody NbCNP 7E (VHH)
VHH: EVQLEESGGGWVHPGGSLRLSCAASGNVFGVNTMAWYRQAPGKQREQRELVASITDYGTTEYADSVKGRFTISGDNAKATVYLQMNSLKPEDTAVYYCNMDLTVMTATSSLYAYDYWGQGTQVTVSS
notes: source: E. coli Shuffle T7, His6-MaBP fusion (pHMGWA), purified (NiNTA, TEV, reverse NiNTA, SEC); not shown: His6, N-terminal, cleaved
B8: MaBP-8D (NbCNP 8D fusion with the intact His6-MaBP) (VHH)
VHH: EVQLEESGGGLVQPGGSLRLSCAASGFTFSSYVMSWVRQAPGKGLEWVSDINSGGSRTYYTDSVKGRFTISRDNAKNTLYLQMNSLKPEDTAVYYCARDSLLSTRYLHTSERGQGTQVTVSS
B9: anti-CNPase nanobody NbCNP 8D (VHH)
VHH: EVQLEESGGGLVQPGGSLRLSCAASGFTFSSYVMSWVRQAPGKGLEWVSDINSGGSRTYYTDSVKGRFTISRDNAKNTLYLQMNSLKPEDTAVYYCARDSLLSTRYLHTSERGQGTQVTVSS
notes: this construct has a short, extended tail; The batch from the His14-bdSUMO system was used for structural work; also called Nb 8D; source: E. coli SHuffle Express, His14-bdSUMO fusion, purified (Ni2+ beads, eluted by bdSENP1 cleavage)
B10: iNbCNP 8D fused to mRuby3 (VHH)
VHH: EVQLEESGGGLVQPGGSLRLSCAASGFTFSSYVMSWVRQAPGKGLEWVSDINSGGSRTYYTDSVKGRFTISRDNAKNTLYLQMNSLKPEDTAVYYCARDSLLSTRYLHTSERGQGTQVTVSS
notes: VHH of NbCNP 8D; also called NbCNP‐8D‐mRuby3; source: COS-7, co-transfected, in cells; not shown: mRuby3, C-terminal, kept

Legend:
[1] = target: T1, full-length mouse CNPase (Mus musculus (mouse), UniProt P16330); assay: DSF thermal shift (SYPRO-Orange); full-length CNPase with Nb; 20 mM HEPES, 150 mM NaCl, 0.5 mM TCEP, pH 7.5; 20–95°C; N = 3; settings: both partners purified
T1 construct: 2′,3′-cyclic nucleotide 3′-phosphodiesterase (CNPase), mouse, full-length; also called mCNPase; full-length mCNPase; source: E. coli Rosetta (DE3), pTH27 vector, autoinduction, purified (SEC)

[2] = target: T1, full-length mouse CNPase; assay: enzyme inhibition kinetics (Dixon plot); apparent Ki; 2′,3′-cNADP+ hydrolysis by full-length mCNPase, coupled assay; 100 mM Bis-Tris pH 6.0, 10 mM MgCl2; +25°C; settings: both partners purified
[3] = target: T2, mouse CNPase catalytic domain (mouse, UniProt P16330); assay: ITC; 8.5–11 μM CNPase catalytic domain in the cell, 88–95 μM Nb in the syringe; 20 mM HEPES, 150 mM NaCl, 0.5 mM TCEP, pH 7.5; +25°C; 1:1 binding model; single experiments
T2 construct: 2′,3′-cyclic nucleotide 3′-phosphodiesterase (CNPase), mouse, catalytic (C-terminal phosphodiesterase) domain; As used in ITC, crystallisation and SEC-SAXS; also called mCNPase catalytic domain; C-terminal phosphodiesterase domain; source: E. coli Rosetta (DE3), pTH27 vector, autoinduction, purified (SEC)

[4] = target: T3, TOM70-EGFP-CNPase-ALFAtag (Mus musculus (assumed)); assay: recruitment to a mitochondria-anchored target (co-localisation by confocal microscopy); COS-7 cells co-transfected with TOM70-EGFP-CNPase and an iNb fused to mRuby3; fixed ca. 16 h after transfection; Pearson's correlation, N = 9 cells; settings: partners not purified
T3 construct: 2′,3′-cyclic nucleotide 3′-phosphodiesterase (CNPase), catalytic domain; also called TOM70‐EGFP‐CNPase (catalytic domain); CNPase anchored to mitochondria; source: COS-7, co-transfected (pcDNA3.1, synthetic gene), in cells; not shown: TOM70 (anchor to the mitochondrial outer membrane), N-terminal, kept; EGFP, internal (between TOM70 and CNPase), kept
T3 chain: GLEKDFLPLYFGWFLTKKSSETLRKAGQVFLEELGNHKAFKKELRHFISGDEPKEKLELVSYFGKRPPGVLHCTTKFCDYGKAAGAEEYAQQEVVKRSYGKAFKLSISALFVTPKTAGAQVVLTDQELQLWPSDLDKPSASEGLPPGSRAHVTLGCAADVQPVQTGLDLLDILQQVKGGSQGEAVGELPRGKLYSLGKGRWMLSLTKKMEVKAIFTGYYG

[5] = target: T2, mouse CNPase catalytic domain; assay: SEC-SAXS; Nb mixed with the CNPase catalytic domain in 1.3-fold molar excess; 20 mM HEPES, 150 mM NaCl, 0.5 mM TCEP, pH 7.5
[6] = target: T1, full-length mouse CNPase; assay: nanoDSF thermal shift (Trp fluorescence); complex prepared by SEC, 2 mg/mL; 20 mM HEPES, 200 mM NaCl, 0.5 mM TCEP, pH 7.5; settings: both partners purified

T1 sequence (P16330 whole entry): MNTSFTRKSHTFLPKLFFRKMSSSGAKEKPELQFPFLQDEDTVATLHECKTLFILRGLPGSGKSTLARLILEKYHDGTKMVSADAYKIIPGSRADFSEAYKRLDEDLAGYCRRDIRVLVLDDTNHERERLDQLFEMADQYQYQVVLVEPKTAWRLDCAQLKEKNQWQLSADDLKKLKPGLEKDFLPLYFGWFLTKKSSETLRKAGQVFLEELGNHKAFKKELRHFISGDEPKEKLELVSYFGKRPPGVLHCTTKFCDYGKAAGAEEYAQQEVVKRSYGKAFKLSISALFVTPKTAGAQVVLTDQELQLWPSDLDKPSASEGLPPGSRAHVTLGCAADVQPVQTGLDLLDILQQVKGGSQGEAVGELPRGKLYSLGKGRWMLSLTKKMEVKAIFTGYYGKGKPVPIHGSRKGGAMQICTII

Row | Binder | ∆Tm [1] [°C] | Kd ([3]; both partners purified) [nM] | dH ([3]; both partners purified) [kcal/mol] | stoichiometry N ([3]; both partners purified) | binding result [4] | stoichiometry N [5] | Kd [3] [nM] | dH [3] [kcal/mol] | stoichiometry N [3] | other results
1 | B1 | 4.2 | 9.8 | -12.1 | 0.804 |  |  |  |  |  | Ki [2]: 0.604 nM
2 | B2 |  | 13.4 | -18.1 | 0.836 |  |  |  |  |  | 
3 | B3 |  |  |  |  | binds |  |  |  |  | 
4 | B4 | 9.2 | 16.6 | -7.07 | 0.914 |  |  |  |  |  | stoichiometry N ([5]; both partners purified): 1
5 | B5 | 17 |  |  |  |  | 1 | 2.2 | -13.8 | 0.82 | 
6 | B6 |  |  |  |  | binds |  |  |  |  | 
7 | B7 | 2.1 | 83.3 | -14.2 | 0.863 |  |  |  |  |  | stoichiometry N ([5]; both partners purified): 1
8 | B8 |  |  |  |  |  | 1 | 0.2 | -11 | 0.837 | 
9 | B9 | 18 |  |  |  |  | 1 | 2.5 | -11 | 0.8 | ∆Tm [6]: 17.7 °C
10 | B10 |  |  |  |  | binds |  |  |  |  | 
